Data reported in patent publication US20260185069.

What was measured:
[1] = tested on: T1, Dn29 large serine recombinase (Desulfotomaculum nigrificans); test: cell_activity; conditions: HEK293FT, unfused LSR, UMI integration-site mapping
T1 sequence: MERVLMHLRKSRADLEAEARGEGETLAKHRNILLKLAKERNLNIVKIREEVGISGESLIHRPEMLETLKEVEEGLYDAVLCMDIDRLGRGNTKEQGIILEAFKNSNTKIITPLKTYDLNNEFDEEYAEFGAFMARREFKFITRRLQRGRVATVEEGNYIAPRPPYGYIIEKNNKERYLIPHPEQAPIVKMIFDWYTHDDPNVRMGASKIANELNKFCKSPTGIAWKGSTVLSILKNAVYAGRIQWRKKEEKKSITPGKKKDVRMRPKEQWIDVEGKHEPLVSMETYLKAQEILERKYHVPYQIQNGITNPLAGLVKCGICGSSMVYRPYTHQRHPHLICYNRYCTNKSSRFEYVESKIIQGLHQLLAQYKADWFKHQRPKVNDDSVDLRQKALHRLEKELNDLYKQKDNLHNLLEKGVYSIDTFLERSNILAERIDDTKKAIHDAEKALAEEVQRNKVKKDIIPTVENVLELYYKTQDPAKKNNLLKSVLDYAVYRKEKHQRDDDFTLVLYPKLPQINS

[2] = target: Dn29-XTEN32-(GGSS)2-dCas9 fusion (synthetic construct) (UniProt Q99ZW2); test: cell_activity; conditions: HEK293FT, attD donor plasmid, single gRNA near attH1, ddPCR; specificity about 78% of UMIs with guide 3

What does the source list for “Dn29 attH1 pseudosite (chr10:21,130,404, NEBL intron)”?
activity (% of integrations at site) [1]: 30; activity (% integration) [2]: < 30
